Data: paper PMC5886718

How the values were obtained:
[1] = molecular target: Glycine oxidase from Pseudoalteromonas luteoviolacea CPMOR-2 (PlGoxA) (Pseudoalteromonas luteoviolacea CPMOR-2); experiment: SEC
[2] = molecular target: Glycine oxidase from Pseudoalteromonas luteoviolacea CPMOR-2 (PlGoxA) (Pseudoalteromonas luteoviolacea CPMOR-2); experiment: crystal structure

Glycine oxidase from Pseudoalteromonas luteoviolacea CPMOR-2 (PlGoxA) (enzyme)
stoichiometry N [1]: 4 | stoichiometry N [2]: 4
